Test results from US20220403009A1 (IGM BIOSCIENCES, published 2022).
Values joined by “and” are separate entries in the source; they are usually repeats but may differ in a detail not shown here. Identical values can stand only once. Like-named read-outs stand apart in the source and are kept apart here.

Assays:
[1] = target: T1, SARS-CoV-2 RBD K417E (SARS-CoV-2, UniProt P0DTC2 319-541); assay: BLI, RBD on anti-Penta-His sensor
[2] = target: T2, SARS-CoV-2 RBD G446V (SARS-CoV-2, UniProt P0DTC2 319-541); assay: BLI, RBD on anti-Penta-His sensor
[3] = target: T3, SARS-CoV-2 RBD Y453F (SARS-CoV-2, UniProt P0DTC2 319-541); assay: BLI, RBD on anti-Penta-His sensor
[4] = target: T4, SARS-CoV-2 RBD E484K (SARS-CoV-2, UniProt P0DTC2 319-541); assay: BLI, RBD on anti-Penta-His sensor
[5] = target: T1, SARS-CoV-2 RBD K417E; assay: BLI, blocking of ACE2-Fc binding to RBD
[6] = target: T2, SARS-CoV-2 RBD G446V; assay: BLI, blocking of ACE2-Fc binding to RBD
[7] = target: T3, SARS-CoV-2 RBD Y453F; assay: BLI, blocking of ACE2-Fc binding to RBD
[8] = target: T4, SARS-CoV-2 RBD E484K; assay: BLI, blocking of ACE2-Fc binding to RBD
[9] = target: T1, SARS-CoV-2 RBD K417E; assay: BLI, RBD on anti-Penta-His sensor; remark: listed apart in the source
[10] = target: T2, SARS-CoV-2 RBD G446V; assay: BLI, RBD on anti-Penta-His sensor; remark: listed apart in the source
[11] = target: T3, SARS-CoV-2 RBD Y453F; assay: BLI, RBD on anti-Penta-His sensor; remark: listed apart in the source
[12] = target: T4, SARS-CoV-2 RBD E484K; assay: BLI, RBD on anti-Penta-His sensor; remark: listed apart in the source
[13] = target: T1, SARS-CoV-2 RBD K417E; assay: BLI, blocking of ACE2-Fc binding to RBD; remark: listed apart in the source
[14] = target: T2, SARS-CoV-2 RBD G446V; assay: BLI, blocking of ACE2-Fc binding to RBD; remark: listed apart in the source
[15] = target: T3, SARS-CoV-2 RBD Y453F; assay: BLI, blocking of ACE2-Fc binding to RBD; remark: listed apart in the source
[16] = target: T4, SARS-CoV-2 RBD E484K; assay: BLI, blocking of ACE2-Fc binding to RBD; remark: listed apart in the source
[17] = target: T1, SARS-CoV-2 RBD K417E; assay: BLI, RBD on anti-Penta-His sensor; remark: listed apart in the source
[18] = target: T2, SARS-CoV-2 RBD G446V; assay: BLI, RBD on anti-Penta-His sensor; remark: listed apart in the source
[19] = target: T3, SARS-CoV-2 RBD Y453F; assay: BLI, RBD on anti-Penta-His sensor; remark: listed apart in the source
[20] = target: T4, SARS-CoV-2 RBD E484K; assay: BLI, RBD on anti-Penta-His sensor; remark: listed apart in the source
[21] = target: T1, SARS-CoV-2 RBD K417E; assay: BLI, blocking of ACE2-Fc binding to RBD; remark: listed apart in the source
[22] = target: T2, SARS-CoV-2 RBD G446V; assay: BLI, blocking of ACE2-Fc binding to RBD; remark: listed apart in the source
[23] = target: T3, SARS-CoV-2 RBD Y453F; assay: BLI, blocking of ACE2-Fc binding to RBD; remark: listed apart in the source
[24] = target: T4, SARS-CoV-2 RBD E484K; assay: BLI, blocking of ACE2-Fc binding to RBD; remark: listed apart in the source

B1: Ab10 IgM (antibody)
VH: QITLKESGPTLVKPTQTLTLTCTFSGFSLSTSGVGVGWIRQPPGKALEWLALIYWDDDKRYSPSLKSRLTITKDTSKNQVVLTMTNMDPVDTATYYCAHHKIERIFDYWGQGTLVTVSS
VL: QSALAQPASVSGSPGQSITISCTGTSSDVGAYNYVSWYQQHPGKAPKLMIYDVSKRPSGVSNRFSGSKSGNTASLTISGLQAEDEADYYCSSYTTSSTVFGGGTKLTVL
chain: not shown
[1]
  Kd: < 1 pM
[2]
  Kd: 110 pM
[3]
  Kd: < 1 pM
[4]
  Kd: < 1 pM
[5]
  IC50: 0.32 nM and 0.28 µg/mL
[6]
  IC50: 5 nM and 4.3 µg/mL
[7]
  IC50: 0.49 nM and 0.42 µg/mL
[8]
  IC50: 0.47 nM and 0.41 µg/mL

B2: Ab10 IgG (antibody, V domains shown)
VH: QITLKESGPTLVKPTQTLTLTCTFSGFSLSTSGVGVGWIRQPPGKALEWLALIYWDDDKRYSPSLKSRLTITKDTSKNQVVLTMTNMDPVDTATYYCAHHKIERIFDYWGQGTLVTVSS
VL: QSALAQPASVSGSPGQSITISCTGTSSDVGAYNYVSWYQQHPGKAPKLMIYDVSKRPSGVSNRFSGSKSGNTASLTISGLQAEDEADYYCSSYTTSSTVFGGGTKLTVL
[1]
  Kd: < 1 pM
[2]
  Kd: 120000 pM
[3]
  Kd: < 1 pM
[4]
  Kd: < 1 pM
[5]
  IC50: 3.8 nM and 0.55 µg/mL
[6]
  IC50: > 69 nM and > 10 µg/mL
[7]
  IC50: 8.6 nM and 1.2 µg/mL
[8]
  IC50: 10 nM and 1.5 µg/mL

B3: Ab8 IgM (antibody)
VH: EVQLVESGGGLIQPGGSLRLSCAASGFTVSRNYMNWVRQAPGKGLEWVSVIYSGGSTFYADSVKGRFTISRDNSKNTLYLQMNSLRAEDTAVYYCARDASSYGIDWGQGTLVTVSS
VL: not shown
chain: not shown
[9]
  Kd: < 1 pM
[10]
  Kd: < 1 pM
[11]
  Kd: < 1 pM
[12]
  Kd: < 1 pM
[13]
  IC50: 1 µg/mL and 1.2 nM
[14]
  IC50: 0.78 µg/mL and 0.9 nM
[15]
  IC50: 0.98 µg/mL and 1.1 nM
[16]
  IC50: 1.3 µg/mL and 1.5 nM

B4: Ab8 IgG (antibody, V domains shown)
VH: EVQLVESGGGLIQPGGSLRLSCAASGFTVSRNYMNWVRQAPGKGLEWVSVIYSGGSTFYADSVKGRFTISRDNSKNTLYLQMNSLRAEDTAVYYCARDASSYGIDWGQGTLVTVSS
VL: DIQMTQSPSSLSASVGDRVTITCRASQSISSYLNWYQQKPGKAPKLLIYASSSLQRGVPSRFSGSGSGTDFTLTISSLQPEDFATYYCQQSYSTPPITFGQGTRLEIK
[9]
  Kd: 2000 pM
[10]
  Kd: < 1 pM
[11]
  Kd: < 1 pM
[12]
  Kd: < 1 pM
[13]
  IC50: 1 µg/mL and 7.2 nM
[14]
  IC50: 0.88 µg/mL and 6.1 nM
[15]
  IC50: 1 µg/mL and 7.2 nM
[16]
  IC50: 2.8 µg/mL and 19 nM

B5: Ab7 IgM (antibody)
VH: EVQLVESGGGLVQPGGSLRLSCAVSGFTVSSNYMSWVRQAPGKGLEWVSVIYTGGGTYYADSVKGRFTISRDNSKNTLYLQMNTLRAEDTTVYYCARGDGSYYRAFDYWGQGTLVTVSS
VL: DIQMTQSPSSLSASVGDRVTITCRASQSISNYLNWYHQKPGKAPKLLIYAASSLQSGVPSRFSGSGSGTDFTLTISSLQPEDFATYYCQQSYSPPPTFGPGTKVEIK
chain: not shown
[17]
  Kd: < 1 pM
[18]
  Kd: < 1 pM
[19]
  Kd: < 1 pM
[20]
  Kd: 7 pM
[21]
  IC50: 0.36 nM and 0.31 µg/mL
[22]
  IC50: 0.32 nM and 0.28 µg/mL
[23]
  IC50: 0.42 nM and 0.36 µg/mL
[24]
  IC50: 0.87 nM and 0.76 µg/mL

B6: Ab7 IgG (antibody, V domains shown)
VH: EVQLVESGGGLVQPGGSLRLSCAVSGFTVSSNYMSWVRQAPGKGLEWVSVIYTGGGTYYADSVKGRFTISRDNSKNTLYLQMNTLRAEDTTVYYCARGDGSYYRAFDYWGQGTLVTVSS
VL: DIQMTQSPSSLSASVGDRVTITCRASQSISNYLNWYHQKPGKAPKLLIYAASSLQSGVPSRFSGSGSGTDFTLTISSLQPEDFATYYCQQSYSPPPTFGPGTKVEIK
[17]
  Kd: < 1 pM
[18]
  Kd: < 1 pM
[19]
  Kd: < 1 pM
[21]
  IC50: 2.4 nM and 0.35 µg/mL
[22]
  IC50: 2.1 nM and 0.3 µg/mL
[23]
  IC50: 3.2 nM and 0.46 µg/mL
[24]
  IC50: > 69 nM and > 10 µg/mL
